Test [1] deals with PTg (genetically detoxified pertussis toxin) (Bordetella pertussis, UniProt P04978+P04979). It is filed as binding.
The target in test [2] is pertussis toxin (PT), enzymatically active holotoxin (Bordetella pertussis, strain of bought …, UniProt P04977;P04978;P04979;P0A3R5;P04981). The test can be described thus: ELISA. For orientation: An ELISA detects its analyte on a solid surface through an enzyme-linked reagent.
Test [3] deals with pertussis toxin S5 subunit, as it stands in PTg (Bordetella pertussis, UniProt P04981). The experiment in a line: cryo-EM structure.
The target of test [4] is pertussis toxin S3 subunit, as it stands in PTg (Bordetella pertussis, UniProt P04979). The test can be described thus: cryo-EM structure.
For test [5], the target named is pertussis toxin S2 subunit, as it stands in PTg (Bordetella pertussis, UniProt P04978). The experiment in a line: cryo-EM structure.

As to `CC(=O)N[C@H]1[C@H]([C@H](O)[C@H](O)CO)O[C@@](O[C@H]2[C@@H](O)[C@@H](CO)O[C@@H](O[C@H]3[C@H](O[C@@H]4O[C@@H](C)[C@@H](O)[C@@H](O)[C@@H]4O)[C@@H](NC(C)=O)C(O)O[C@@H]3CO)[C@@H]2O)(C(=O)O)C[C@@H]1O` (stereo partly drawn) [sialyl Lewis^X blood group antigen, Neu5Acα2-3Galβ1-4(Fucα1-3)GlcNAc], the RFU result in test [1] was “PTg alone binds to sialylated N-glycans, asialo-N-glycans, and other carbohydrates (such as the sialyl Lewis^X”.

B1: hu1B7mut IgG (hu1B7 HC S56A, Q61A, Q64A) (antibody, V domains shown)
VH: QVQLVQSGAEVKKPGASVKVSCKASGYKFTSYWMHWVRQAPGQGLEWIGNIFPGSGATNYAAKFAGRVTLTVDTSTSTAYMELSSLRSEDTAVYYCTRWLSGAYFDYWGQGTTVTVSS
VL: QIVLTQSPATLSVSPGERVTLTCSASSSVSFMYWYQQKPGRAPKPLIYLTSNLPSGVPARFSGSGSGTSYTLTINSLEAEDAATYYCQQWSSHPPTFGSGTKLEIK
Consider B1, for which the binding result in test [2] was “binds”.

B2: hu1B7 Fab (Fab, V domains shown)
VH: QVQLVQSGAEVKKPGASVKVSCKASGYKFTSYWMHWVRQAPGQGLEWIGNIFPGSGSTNYAQKFQGRVTLTVDTSTSTAYMELSSLRSEDTAVYYCTRWLSGAYFDYWGQGTTVTVSS
VL: QIVLTQSPATLSVSPGERVTLTCSASSSVSFMYWYQQKPGRAPKPLIYLTSNLPSGVPARFSGSGSGTSYTLTINSLEAEDAATYYCQQWSSHPPTFGSGTKLEIK
As for B2, the binding result in test [3] was “binds”.

B3: hu1B7 IgG (antibody, V domains shown)
VH: QVQLVQSGAEVKKPGASVKVSCKASGYKFTSYWMHWVRQAPGQGLEWIGNIFPGSGSTNYAQKFQGRVTLTVDTSTSTAYMELSSLRSEDTAVYYCTRWLSGAYFDYWGQGTTVTVSS
VL: QIVLTQSPATLSVSPGERVTLTCSASSSVSFMYWYQQKPGRAPKPLIYLTSNLPSGVPARFSGSGSGTSYTLTINSLEAEDAATYYCQQWSSHPPTFGSGTKLEIK
B3: the binding result in test [2] is “binds”.

B4: hu11E6 Fab (Fab, V domains shown)
VH: EVQVVESGGGLVQPGRSLRLSCTTSGFTFTDYYVSWVRQAPGKALEWLGFIRNKVNGYTTEFSSSVKGRFTISRDNSKSILYLQMNSLKIEDTAVYYCARVSYYGRGWYFDYWGQGTTLTVSS
VL: DIVMTQSPSSLSASVGDRVTISCRASQDIDNYLSWFQQKPGGTVKLLIYYTSRLHSGVPSRFSGSGSGTDYTLTISSLQPEDIATYFCQQGNTFPWTFGGGTKLEIK
In the case of B4, the binding result in test [4] and in test [5] was “binds” each time.
